Data published in paper PMC7537338 (2020).
Where no end group is shown, it is not given here.

Experiments:
[1] = biological target: human CD47-IgV-Domain-hIg fusion protein (human, UniProt Q08722 19-141); assay: FACS; competition with human SIRPα on CHO cells
[2] = biological target: T1, mouse CD47-IgV-Domain-hIg fusion protein (mouse, UniProt Q61735 19-140); assay: FACS; competition with mouse SIRPα on CHO cells
T1 chain: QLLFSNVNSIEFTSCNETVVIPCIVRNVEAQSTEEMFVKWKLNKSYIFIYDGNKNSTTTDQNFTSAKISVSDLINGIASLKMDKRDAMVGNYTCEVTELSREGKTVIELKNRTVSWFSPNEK

human CD47-IgV-Domain-hIg fusion protein, sequence (Q08722 19-141): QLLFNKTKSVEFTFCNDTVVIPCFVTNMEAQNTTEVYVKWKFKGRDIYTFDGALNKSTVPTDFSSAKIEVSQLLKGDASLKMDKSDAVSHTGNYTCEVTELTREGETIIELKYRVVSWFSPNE

IC50 [1]: 12.1 µM
IC50 [2]: 18.2 µM
B1: pep-20-D12 (peptide)
chain: AWSATWSNYWRH
modifications: also: three D-amino acid residues substituted at N- and C-terminal, places not given here
